Source: the array DNA melting data of Ke et al.

Assay: melting temperature; melt of duplexes
Settings: sodium 0.0675 M; strand 1 µM

| Substance | Tm [°C] |
| --- | --- |
| CGACGTGCGAAATGTGCTG+CAGCACATTTAGCACGTCG ((((((((.((((((((((+)))))))))).)))))))) | 57.9 |
| CGACGTGCGGGATGTGCTG+CAGCACATTAGGCACGTCG ((((((((...((((((((+))))))))...)))))))) | 51.9 |
| CGACGTGCCGTATGTGCTG+CAGCACATTGGGCACGTCG (((((((((..((((((((+))))))))..))))))))) | 54.7 |
| CGACGTGCCAAATGTGCTG+CAGCACATGCCGCACGTCG ((((((((...((((((((+))))))))...)))))))) | 50.6 |
| CGACGTGCCGGATGTGCTG+CAGCACATACGGCACGTCG ((((((((((.((((((((+)))))))).)))))))))) | 63.8 |
| CGACGTGCGCTATGTGCTG+CAGCACATGACGCACGTCG (((((((((..((((((((+))))))))..))))))))) | 52.4 |
| CGACGTGCCTCATGTGCTG+CAGCACATCGCGCACGTCG ((((((((...((((((((+))))))))...)))))))) | 46.6 |
| CGACGTGCTTCATGTGCTG+CAGCACATACCGCACGTCG ((((((((...((((((((+))))))))...)))))))) | 47.3 |
| CGACGTGCGCGATGTGCTG+CAGCACATTTAGCACGTCG ((((((((...((((((((+))))))))...)))))))) | 52.2 |
| CGACGTGCTTCATGTGCTG+CAGCACATAAGGCACGTCG ((((((((.(.((((((((+)))))))).).)))))))) | 50.6 |
| CGACGTGCGGTATGTGCTG+CAGCACATATAGCACGTCG ((((((((..(((((((((+)))))))))..)))))))) | 56.4 |
| CGACGTGCCGAATGTGCTG+CAGCACATTTCGCACGTCG ((((((((..(((((((((+)))))))))..)))))))) | 52.4 |
| CGACGTGCAATATGTGCTG+CAGCACATGTAGCACGTCG ((((((((.(.((((((((+)))))))).).)))))))) | 52 |
| CGACGTGCCGGATGTGCTG+CAGCACATTTCGCACGTCG ((((((((...((((((((+))))))))...)))))))) | 49.1 |
| CGACGTGCCTCATGTGCTG+CAGCACATCCGGCACGTCG (((((((((..((((((((+))))))))..))))))))) | 51.2 |
| CGACGTGCCAAATGTGCTG+CAGCACATTATGCACGTCG ((((((((..(((((((((+)))))))))..)))))))) | 51.2 |
| CGACGTGCAAGATGTGCTG+CAGCACATATGGCACGTCG ((((((((.(.((((((((+)))))))).).)))))))) | 53 |
| CGACGTGCATCATGTGCTG+CAGCACATTTCGCACGTCG ((((((((...((((((((+))))))))...)))))))) | 46.9 |
| CGACGTGCTAGATGTGCTG+CAGCACATTAGGCACGTCG ((((((((...((((((((+))))))))...)))))))) | 52.2 |
| CGACGTGCCGGATGTGCTG+CAGCACATGACGCACGTCG ((((((((...((((((((+))))))))...)))))))) | 46.3 |
| CGACGTGCCTCATGTGCTG+CAGCACATTTGGCACGTCG (((((((((..((((((((+))))))))..))))))))) | 53.6 |
| CGACGTGCCTGATGTGCTG+CAGCACATGGTGCACGTCG ((((((((...((((((((+))))))))...)))))))) | 47.4 |
| CGACGTGCTAGATGTGCTG+CAGCACATGACGCACGTCG ((((((((...((((((((+))))))))...)))))))) | 48.1 |
| CGACGTGCAACATGTGCTG+CAGCACATCCAGCACGTCG ((((((((...((((((((+))))))))...)))))))) | 47.1 |

| Substance | Tm [°C] |
| --- | --- |
| CGACGTGCGGAATGTGCTG+CAGCACATGTCGCACGTCG (((((((((..((((((((+))))))))..))))))))) | 57 |
| CGACGTGCATAATGTGCTG+CAGCACATATGGCACGTCG ((((((((...((((((((+))))))))...)))))))) | 50.4 |
| CGACGTGCACGATGTGCTG+CAGCACATCGTGCACGTCG (((((((((((((((((((+))))))))))))))))))) | 65.4 |
| CGACGTGCATGATGTGCTG+CAGCACATGCAGCACGTCG ((((((((...((((((((+))))))))...)))))))) | 50.4 |
| CGACGTGCGATATGTGCTG+CAGCACATGGTGCACGTCG ((((((((...((((((((+))))))))...)))))))) | 49.2 |
| CGACGTGCAAAATGTGCTG+CAGCACATCAGGCACGTCG ((((((((...((((((((+))))))))...)))))))) | 49.4 |
| CGACGTGCTAGATGTGCTG+CAGCACATACTGCACGTCG ((((((((...((((((((+))))))))...)))))))) | 50.9 |
| CGACGTGCCTTATGTGCTG+CAGCACATAGGGCACGTCG (((((((((.(((((((((+))))))))).))))))))) | 57.7 |
| CGACGTGCTTTATGTGCTG+CAGCACATGGCGCACGTCG ((((((((...((((((((+))))))))...)))))))) | 47.2 |
| CGACGTGCAGCATGTGCTG+CAGCACATAAGGCACGTCG ((((((((...((((((((+))))))))...)))))))) | 47.6 |
| CGACGTGCGTTATGTGCTG+CAGCACATTGAGCACGTCG ((((((((...((((((((+))))))))...)))))))) | 54 |
| CGACGTGCGATATGTGCTG+CAGCACATGAGGCACGTCG ((((((((...((((((((+))))))))...)))))))) | 53.1 |
| CGACGTGCTTGATGTGCTG+CAGCACATGAGGCACGTCG ((((((((.(.((((((((+)))))))).).)))))))) | 51.6 |
| CGACGTGCCTGATGTGCTG+CAGCACATAAGGCACGTCG ((((((((((.((((((((+)))))))).)))))))))) | 59 |
| CGACGTGCGTAATGTGCTG+CAGCACATTGTGCACGTCG ((((((((..(((((((((+)))))))))..)))))))) | 52 |
| CGACGTGCAGCATGTGCTG+CAGCACATGCTGCACGTCG (((((((((((((((((((+))))))))))))))))))) | 66.1 |
| CGACGTGCCGTATGTGCTG+CAGCACATCGTGCACGTCG ((((((((...((((((((+))))))))...)))))))) | 51 |
| CGACGTGCTAGATGTGCTG+CAGCACATACGGCACGTCG ((((((((...((((((((+))))))))...)))))))) | 49.9 |
| CGACGTGCCCCATGTGCTG+CAGCACATACTGCACGTCG ((((((((...((((((((+))))))))...)))))))) | 45.9 |
| CGACGTGCTTGATGTGCTG+CAGCACATTACGCACGTCG ((((((((.(.((((((((+)))))))).).)))))))) | 50.1 |
| CGACGTGCATAATGTGCTG+CAGCACATCAAGCACGTCG ((((((((.(.((((((((+)))))))).).)))))))) | 48.4 |
| CGACGTGCCAAATGTGCTG+CAGCACATCAAGCACGTCG ((((((((...((((((((+))))))))...)))))))) | 49.3 |
| CGACGTGCCATATGTGCTG+CAGCACATAAAGCACGTCG ((((((((..(((((((((+)))))))))..)))))))) | 51.3 |
| CGACGTGCCCGATGTGCTG+CAGCACATGCAGCACGTCG ((((((((...((((((((+))))))))...)))))))) | 49.6 |

| Substance | Tm [°C] |
| --- | --- |
| CGACGTGCATAATGTGCTG+CAGCACATCGTGCACGTCG (((((((((..((((((((+))))))))..))))))))) | 47.6 |
| CGACGTGCTGGATGTGCTG+CAGCACATGAGGCACGTCG ((((((((...((((((((+))))))))...)))))))) | 54 |
| CGACGTGCATAATGTGCTG+CAGCACATTAAGCACGTCG ((((((((.((((((((((+)))))))))).)))))))) | 55.1 |
| CGACGTGCTTCATGTGCTG+CAGCACATGCTGCACGTCG ((((((((..(((((((((+)))))))))..)))))))) | 53.1 |
| CGACGTGCGCCATGTGCTG+CAGCACATTTCGCACGTCG (((((((((..((((((((+))))))))..))))))))) | 51.6 |
| CGACGTGCCTCATGTGCTG+CAGCACATACTGCACGTCG ((((((((...((((((((+))))))))...)))))))) | 47 |
| CGACGTGCAGAATGTGCTG+CAGCACATCCGGCACGTCG ((((((((.(.((((((((+)))))))).).)))))))) | 52.7 |
| CGACGTGCTCCATGTGCTG+CAGCACATATCGCACGTCG ((((((((...((((((((+))))))))...)))))))) | 46.4 |
| CGACGTGCTTGATGTGCTG+CAGCACATCATGCACGTCG ((((((((.((((((((((+)))))))))).)))))))) | 59.5 |
| CGACGTGCCTCATGTGCTG+CAGCACATTATGCACGTCG ((((((((.(.((((((((+)))))))).).)))))))) | 47.7 |
| CGACGTGCACGATGTGCTG+CAGCACATGTTGCACGTCG (((((((((..((((((((+))))))))..))))))))) | 49.9 |
| CGACGTGCTGGATGTGCTG+CAGCACATGTGGCACGTCG ((((((((...((((((((+))))))))...)))))))) | 52.6 |
| CGACGTGCCAAATGTGCTG+CAGCACATATCGCACGTCG ((((((((.(.((((((((+)))))))).).)))))))) | 47.2 |
| CGACGTGCTGAATGTGCTG+CAGCACATGGTGCACGTCG ((((((((...((((((((+))))))))...)))))))) | 50.9 |
| CGACGTGCAAGATGTGCTG+CAGCACATTTGGCACGTCG ((((((((.(.((((((((+)))))))).).)))))))) | 52.5 |
| CGACGTGCGGAATGTGCTG+CAGCACATTTAGCACGTCG ((((((((..(((((((((+)))))))))..)))))))) | 55.1 |
| CGACGTGCCTAATGTGCTG+CAGCACATCGCGCACGTCG ((((((((...((((((((+))))))))...)))))))) | 47 |
| CGACGTGCTCTATGTGCTG+CAGCACATGTGGCACGTCG ((((((((...((((((((+))))))))...)))))))) | 50.4 |
| CGACGTGCGCTATGTGCTG+CAGCACATCACGCACGTCG (((((((((..((((((((+))))))))..))))))))) | 53.3 |
| CGACGTGCTGTATGTGCTG+CAGCACATTACGCACGTCG ((((((((...((((((((+))))))))...)))))))) | 51 |
| CGACGTGCTATATGTGCTG+CAGCACATGGTGCACGTCG ((((((((...((((((((+))))))))...)))))))) | 47.7 |
| CGACGTGCACTATGTGCTG+CAGCACATGTGGCACGTCG ((((((((...((((((((+))))))))...)))))))) | 48 |
| CGACGTGCCTAATGTGCTG+CAGCACATGTAGCACGTCG ((((((((...((((((((+))))))))...)))))))) | 51.8 |
| CGACGTGCTAAATGTGCTG+CAGCACATTACGCACGTCG ((((((((..(((((((((+)))))))))..)))))))) | 51.4 |
